As a reminder, the stoichiometry N is a count of units in the complex or per binding partner.

The test has as its target p170, truncated ORF2-encoded protein of aa 439-608 from hepatitis E virus CCJD-517 (hepatitis E virus CCJD-517 (HEV-3)). As to the kind of experiment: non-reducing SDS-PAGE.

“p170, truncated ORF2-encoded protein of aa 439-608 from hepatitis E virus CCJD-517 (domain or fragment)”: the stoichiometry N is 2.
